Results as given in doi:10.1101/2023.10.24.563787 (bioRxiv, 2023).

Target: the molecule itself
Assay: cryo-EM structure

B1: 3xFLAG-Lip1, small regulatory subunit of the yeast ceramide synthase (CerS) complex (natural protein, S. cerevisiae)
chain: PKIFNLFRVCFISLLLIAAVEYFKYGTRINYEWFHCTPIKEPQSGSVIKLWARGGPSCDKRGEYKTIVKRITRDYEPNDEHLSFCIIENDNVPPVHYPIHEDKGEPGYVAYVGYDTDSELVQELCADSTIYHM
In the case of B1, the “stoichiometry N” value is reported as 2.
